Data from publication PMC10191332.

Biological target: recombinant His-gH/gL (HCMV), purified (HCMV) (UniProt P12824)
Test: BLI

Substance: EphA2 extracellular domain (27-534), purified (from UniProt P29317 27-534) (domain or fragment)
- Kd: 36.4 nM
